This is an account of results in US20140274782A1, “AFFINITY REAGENTS AND METHODS FOR DETECTION, PURIFICATION, AND PROTEOMIC ANALYSIS OF METHYLATED PROTEINS” (The Board of Trustees of the Leland Stanford Junior …, priority 2013, published 2014).

In assay [1] the test system is 3×MBT domain of L3MBTL1. As to the kind of experiment: Triple SILAC pull-down, 3xMBT/3xMBTD355N ratio (cytoplasmic, nuclear and chromatin fractions of 293T cells).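 As to all read-outs here: proteins quantified with MaxQuant, requiring at least two unique peptides and quantification in both label directions, normalized to the mean of proteins from a digested loading control.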 The note with it: SILAC ratio 3xMBT vs 3xMBTD355N pull-down, 293T cells, all values in log base 2; for 3xMBT/D355N UNC Heavy: experiment with UNC0638 in heavy SILAC media; for 3xMBT/D355N UNC Light: experiment with UNC0638 in light SILAC media. The class given is binding, human.

Assay [2] concerns the target T1, G9a and GLP (Homo sapiens, UniProt Q96KQ7+Q9H9B1).
T1 sequence (Q96KQ7 2-1210 limits assumed): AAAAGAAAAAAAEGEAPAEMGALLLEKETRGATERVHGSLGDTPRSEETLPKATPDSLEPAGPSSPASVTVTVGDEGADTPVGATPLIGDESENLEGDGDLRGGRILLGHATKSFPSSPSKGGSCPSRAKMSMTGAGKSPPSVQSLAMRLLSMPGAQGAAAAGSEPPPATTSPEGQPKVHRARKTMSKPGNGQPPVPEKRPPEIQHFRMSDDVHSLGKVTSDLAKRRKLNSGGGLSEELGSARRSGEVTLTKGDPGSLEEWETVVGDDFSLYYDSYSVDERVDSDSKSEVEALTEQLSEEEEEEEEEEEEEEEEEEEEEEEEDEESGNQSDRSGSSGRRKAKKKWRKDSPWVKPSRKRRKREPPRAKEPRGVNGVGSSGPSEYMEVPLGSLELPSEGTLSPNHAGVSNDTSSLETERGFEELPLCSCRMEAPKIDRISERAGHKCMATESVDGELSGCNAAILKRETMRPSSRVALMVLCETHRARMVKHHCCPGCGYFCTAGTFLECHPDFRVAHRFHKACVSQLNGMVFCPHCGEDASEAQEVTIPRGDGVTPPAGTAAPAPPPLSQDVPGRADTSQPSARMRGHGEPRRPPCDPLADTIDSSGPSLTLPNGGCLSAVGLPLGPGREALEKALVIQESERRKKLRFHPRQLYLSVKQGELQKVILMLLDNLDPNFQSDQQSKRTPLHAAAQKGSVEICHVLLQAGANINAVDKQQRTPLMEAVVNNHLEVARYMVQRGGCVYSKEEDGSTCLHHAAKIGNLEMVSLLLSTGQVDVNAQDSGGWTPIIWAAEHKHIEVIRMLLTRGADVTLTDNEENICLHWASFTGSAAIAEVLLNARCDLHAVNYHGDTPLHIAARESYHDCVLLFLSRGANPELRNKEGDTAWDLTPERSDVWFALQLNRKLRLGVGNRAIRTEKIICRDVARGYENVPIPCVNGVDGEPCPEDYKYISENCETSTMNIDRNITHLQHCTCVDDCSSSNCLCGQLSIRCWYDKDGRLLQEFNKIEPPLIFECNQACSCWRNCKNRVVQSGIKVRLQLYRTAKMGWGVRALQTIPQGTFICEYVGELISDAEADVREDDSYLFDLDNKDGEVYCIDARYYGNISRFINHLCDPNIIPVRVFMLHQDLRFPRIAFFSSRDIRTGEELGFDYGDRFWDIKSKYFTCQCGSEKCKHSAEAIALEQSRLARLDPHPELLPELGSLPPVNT
T1 sequence (Q9H9B1 2-1298 limits assumed): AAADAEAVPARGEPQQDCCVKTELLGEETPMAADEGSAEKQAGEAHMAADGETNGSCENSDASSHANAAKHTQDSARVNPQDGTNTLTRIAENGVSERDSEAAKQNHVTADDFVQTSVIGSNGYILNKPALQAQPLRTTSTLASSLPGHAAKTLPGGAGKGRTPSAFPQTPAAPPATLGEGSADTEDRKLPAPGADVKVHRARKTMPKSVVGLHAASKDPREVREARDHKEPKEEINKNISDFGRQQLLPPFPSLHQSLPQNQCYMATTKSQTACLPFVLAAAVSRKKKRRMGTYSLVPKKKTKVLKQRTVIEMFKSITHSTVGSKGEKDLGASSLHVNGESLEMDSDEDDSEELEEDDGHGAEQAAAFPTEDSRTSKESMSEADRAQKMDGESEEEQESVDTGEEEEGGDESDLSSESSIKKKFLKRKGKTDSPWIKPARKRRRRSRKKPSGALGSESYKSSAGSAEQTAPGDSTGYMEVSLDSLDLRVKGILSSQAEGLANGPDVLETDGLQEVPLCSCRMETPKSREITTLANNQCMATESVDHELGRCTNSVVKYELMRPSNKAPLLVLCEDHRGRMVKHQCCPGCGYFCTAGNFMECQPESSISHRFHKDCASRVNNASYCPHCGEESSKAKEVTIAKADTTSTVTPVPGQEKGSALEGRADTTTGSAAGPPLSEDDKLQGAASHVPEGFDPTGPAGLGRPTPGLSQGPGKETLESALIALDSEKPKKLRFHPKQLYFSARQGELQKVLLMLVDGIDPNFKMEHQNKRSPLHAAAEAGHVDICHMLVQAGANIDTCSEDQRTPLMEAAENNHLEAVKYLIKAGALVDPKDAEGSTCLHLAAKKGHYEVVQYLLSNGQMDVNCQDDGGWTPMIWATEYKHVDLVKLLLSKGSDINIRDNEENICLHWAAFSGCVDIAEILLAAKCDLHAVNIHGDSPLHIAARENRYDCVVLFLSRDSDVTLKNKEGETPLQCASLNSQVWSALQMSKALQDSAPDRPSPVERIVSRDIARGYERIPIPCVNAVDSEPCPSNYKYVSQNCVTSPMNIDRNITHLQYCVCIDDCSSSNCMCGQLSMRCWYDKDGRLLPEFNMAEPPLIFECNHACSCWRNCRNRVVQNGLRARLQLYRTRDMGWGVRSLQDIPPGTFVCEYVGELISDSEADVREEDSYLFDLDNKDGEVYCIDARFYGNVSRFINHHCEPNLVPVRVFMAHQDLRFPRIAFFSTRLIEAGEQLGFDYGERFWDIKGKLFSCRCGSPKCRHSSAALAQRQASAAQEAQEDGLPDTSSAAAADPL
The assay can be described thus: Triple SILAC pull-down after UNC0638 treatment of 293T cells, DMSO/UNC0638 ratio of protein captured by 3×MBT.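 As to all read-outs here: mass spectrometry (Q-Exactive) SILAC quantitation, DMSO/UNC0638 ratio computed after subtracting 3×MBTD355N mutant pull-down background, only proteins with at least twofold 3×MBT over mutant signal considered.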 It counts as cell-based. Details: endogenous in cells; host or cells: HEK 293T. The note with it: all values in log base 2; for Relative to UNC0638 UNC Heavy / Relative to UNC0638 UNC Light: SILAC ratio DMSO relative to UNC0638, pull-down with 3xMBT; for Relative to UNC0638 UNC Heavy: UNC0638 in heavy SILAC media; for Relative to UNC0638 UNC Light: UNC0638 in light SILAC media; for Relative to UNC0638 Average: average of UNC Light and UNC Heavy experiments.

B1: SHKBP1 (protein, UniProt Q8TBC3 2-707, looked up)
SH3KBP1-binding protein 1: AAAATAAEGVPSRGPPGEVIHLNVGGKRFSTSRQTLTWIPDSFFSSLLSGRISTLKDETGAIFIDRDPTVFAPILNFLRTKELDPRGVHGSSLLHEAQFYGLTPLVRRLQLREELDRSSCGNVLFNGYLPPPVFPVKRRNRHSLVGPQQLGGRPAPVRRSNTMPPNLGNAGLLGRMLDEKTPPSPSGQPEEPGMVRLVCGHHNWIAVAYTQFLVCYRLKEASGWQLVFSSPRLDWPIERLALTARVHGGALGEHDKMVAAATGSEILLWALQAEGGGSEIGVFHLGVPVEALFFVGNQLIATSHTGRIGVWNAVTKHWQVQEVQPITSYDAAGSFLLLGCNNGSIYYVDVQKFPLRMKDNDLLVSELYRDPAEDGVTALSVYLTPKTSDSGNWIEIAYGTSSGGVRVIVQHPETVGSGPQLFQTFTVHRSPVTKIMLSEKHLISVCADNNHVRTWSVTRFRGMISTQPGSTPLASFKILALESADGHGGCSAGNDIGPYGERDDQQVFIQKVVPSASQLFVRLSSTGQRVCSVRSVDGSPTTAFTVLECEGSRRLGSRPRRYLLTGQANGSLAMWDLTTAMDGLGQAPAGGLTEQELMEQLEHCELAPPAPSAPSWGCLPSPSPRISLTSLHSASSNTSLSGHRGSPSPPQAEARRRGGGSFVERCQELVRSGPDLRRPPTPAPWPSSGLGTPLTPPKMKLNETSF
B1: in assay [1], the “3xMBT/D355N UNC Heavy” value came to 2.90 log base 2 and the “3xMBT/D355N UNC Light” value was 2.73 log base 2. In assay [2], the “Relative to UNC0638 UNC Heavy” value was 0.71 log base 2, the “Relative to UNC0638 UNC Light” value is recorded as −0.94 log base 2 and the “Relative to UNC0638 Average” value is listed as −0.12 log base 2.

B2: NCBP1 (protein, UniProt Q09161 1-790, looked up)
Nuclear cap-binding protein …: MSRRRHSDENDGGQPHKRRKTSDANETEDHLESLICKVGEKSACSLESNLEGLAGVLEADLPNYKSKILRLLCTVARLLPEKLTIYTTLVGLLNARNYNFGGEFVEAMIRQLKESLKANNYNEAVYLVRFLSDLVNCHVIAAPSMVAMFENFVSVTQEEDVPQVRRDWYVYAFLSSLPWVGKELYEKKDAEMDRIFANTESYLKRRQKTHVPMLQVWTADKPHPQEEYLDCLWAQIQKLKKDRWQERHILRPYLAFDSILCEALQHNLPPFTPPPHTEDSVYPMPRVIFRMFDYTDDPEGPVMPGSHSVERFVIEENLHCIIKSHWKERKTCAAQLVSYPGKNKIPLNYHIVEVIFAELFQLPAPPHIDVMYTTLLIELCKLQPGSLPQVLAQATEMLYMRLDTMNTTCVDRFINWFSHHLSNFQFRWSWEDWSDCLSQDPESPKPKFVREVLEKCMRLSYHQRILDIVPPTFSALCPANPTCIYKYGDESSNSLPGHSVALCLAVAFKSKATNDEIFSILKDVPNPNQDDDDDEGFSFNPLKIEVFVQTLLHLAAKSFSHSFSALAKFHEVFKTLAESDEGKLHVLRVMFEVWRNHPQMIAVLVDKMIRTQIVDCAAVANWIFSSELSRDFTRLFVWEILHSTIRKMNKHVLKIQKELEEAKEKLARQHKRRSDDDDRSSDRKDGVLEEQIERLQEKVESAQSEQKNLFLVIFQRFIMILTEHLVRCETDGTSVLTPWYKNCIERLQQIFLQHHQIIQQYMVTLENLLFTAELDPHILAVFQQFCALQA
With B2, in assay [1], the “3xMBT/D355N UNC Heavy” value was 1.27 log base 2 and the “3xMBT/D355N UNC Light” value is on record as 2.23 log base 2. In addition, in assay [2], the “Relative to UNC0638 UNC Heavy” value is −0.32 log base 2, the “Relative to UNC0638 UNC Light” value was 0.11 log base 2 and the “Relative to UNC0638 Average” value is reported as −0.11 log base 2.

B3: BAZ1B (protein, UniProt Q9UIG0 1-1483, looked up)
Tyrosine-protein kinase BAZ1B: MAPLLGRKPFPLVKPLPGEEPLFTIPHTQEAFRTREEYEARLERYSERIWTCKSTGSSQLTHKEAWEEEQEVAELLKEEFPAWYEKLVLEMVHHNTASLEKLVDTAWLEIMTKYAVGEECDFEVGKEKMLKVKIVKIHPLEKVDEEATEKKSDGACDSPSSDKENSSQIAQDHQKKETVVKEDEGRRESINDRARRSPRKLPTSLKKGERKWAPPKFLPHKYDVKLQNEDKIISNVPADSLIRTERPPNKEIVRYFIRHNALRAGTGENAPWVVEDELVKKYSLPSKFSDFLLDPYKYMTLNPSTKRKNTGSPDRKPSKKSKTDNSSLSSPLNPKLWCHVHLKKSLSGSPLKVKNSKNSKSPEEHLEEMMKMMSPNKLHTNFHIPKKGPPAKKPGKHSDKPLKAKGRSKGILNGQKSTGNSKSPKKGLKTPKTKMKQMTLLDMAKGTQKMTRAPRNSGGTPRTSSKPHKHLPPAALHLIAYYKENKDREDKRSALSCVISKTARLLSSEDRARLPEELRSLVQKRYELLEHKKRWASMSEEQRKEYLKKKREELKKKLKEKAKERREKEMLERLEKQKRYEDQELTGKNLPAFRLVDTPEGLPNTLFGDVAMVVEFLSCYSGLLLPDAQYPITAVSLMEALSADKGGFLYLNRVLVILLQTLLQDEIAEDYGELGMKLSEIPLTLHSVSELVRLCLRRSDVQEESEGSDTDDNKDSAAFEDNEVQDEFLEKLETSEFFELTSEEKLQILTALCHRILMTYSVQDHMETRQQMSAELWKERLAVLKEENDKKRAEKQKRKEMEAKNKENGKVENGLGKTDRKKEIVKFEPQVDTEAEDMISAVKSRRLLAIQAKKEREIQEREMKVKLERQAEEERIRKHKAAAEKAFQEGIAKAKLVMRRTPIGTDRNHNRYWLFSDEVPGLFIEKGWVHDSIDYRFNHHCKDHTVSGDEDYCPRSKKANLGKNASMNTQHGTATEVAVETTTPKQGQNLWFLCDSQKELDELLNCLHPQGIRESQLKERLEKRYQDIIHSIHLARKPNLGLKSCDGNQELLNFLRSDLIEVATRLQKGGLGYVEETSEFEARVISLEKLKDFGECVIALQASVIKKFLQGFMAPKQKRRKLQSEDSAKTEEVDEEKKMVEEAKVASALEKWKTAIREAQTFSRMHVLLGMLDACIKWDMSAENARCKVCRKKGEDDKLILCDECNKAFHLFCLRPALYEVPDGEWQCPACQPATARRNSRGRNYTEESASEDSEDDESDEEEEEEEEEEEEEDYEVAGLRLRPRKTIRGKHSVIPPAARSGRRPGKKPHSTRRSQPKAPPVDDAEVDELVLQTKRSSRRQSLELQKCEEILHKIVKYRFSWPFREPVTRDEAEDYYDVITHPMDFQTVQNKCSCGSYRSVQEFLTDMKQVFTNAEVYNCRGSHVLSCMVKTEQCLVALLHKHLPGHPYVRRKRKKFPDRLAEDEGDSEPEAVGQSRGRRQKK
Turning to B3, in assay [1], the “3xMBT/D355N UNC Heavy” value is on record as 1.37 log base 2 and the “3xMBT/D355N UNC Light” value was found to be 0.19 log base 2. Moreover, in assay [2], the “Relative to UNC0638 UNC Heavy” value worked out at 0.14 log base 2, the “Relative to UNC0638 UNC Light” value is reported as −0.38 log base 2 and the “Relative to UNC0638 Average” value is −0.12 log base 2.
